*1 amine or outer side, *2 acyl side, *3 side chain or, on linkers, in order; H or OH if unused. Where a SMILES comes first, the peptide text is derived from it. [ ]: non-standard residue; d: D form. The star is where a group is joined. ξ: configuration not given here. Dil(5ξ) = CCC(C)[C@@H]([C@@H](CC(=O)[*:2])OC)N(C)[*:1]; Dolaproine = CO[C@@H]([C@@H]1CCCN1)[C@@H](C)C(=O)O; Hexanoyl(6-maleimido) = O=C1C=CC(=O)N1CCCCCC(=O)*; PABC = O=C(OCc1ccc(N[*:1])cc1)[*:2]; X1 = C[C@@H](N*)[C@@H](O)c1ccccc1; Cit = NC(=O)NCCC[C@H](N)C(=O)O; NMeV = CN[C@H](C(=O)O)C(C)C
Assay: Hydrolysis of Pertuzumab conjugated samples obtained using different small molecule compounds, hydrolysis percentage by Native MS
Type: physicochemical
Conditions: for hydrolysis of conjugated samples (in words) / 6 h hydrolysis percentage / 18 h hydrolysis percentage: 50 mM PB pH 7.8, 35° C.; for hydrolysis of conjugated samples (in words): summary of Table 3-2; for hydrolysis speed of conjugated samples (in words): hydrolysis systems A-D, pH 7.8, summary of Table 3-3
Description: The analysis conditions were as follows: • Capillary activation: the capillary was rinsed with 0.1 mol/L sodium hydroxide for 10 min, 0.1 mol/L hydrochloric acid for 5 min and water for injection for 2 min respectively at 20 psi; and then rinsed with SDS-MW-Gel Buffer for 10 min at 70 psi; afterwards, pre-separation was performed for 10 min at 20 psi, at a column temperature of 25° C. and a voltage of −15 kv. The program was run: at 70 psi, the capillary was rinsed with 0.1 mol/L sodium hydroxide for 3 min, 0.1 mol/L hydrochloric acid for 1 min and water for injection for 1 min respectively; then the gel was poured for 10 min, the sample was loaded for 40 s at −5 kv, and the separation program was run ([…], 20 psi). The column temperature was set to 25° C., the voltage for separation was set to −15 kv, and the separation was performed for 40 min. • (4) Size exclusion chromatography (SEC-HPLC): • Sample treatment: the sample was diluted to 2.0-3.0 mg/ml with the mobile phase, and then was centrifuged at 12000 rpm for 10 min; and the supernatant was taken for analysis. • Chromatographic column: TOSOH, TSKgel G3000SWXL, 5 μm, 7.8 mm×300 mm; • Mobile phase: 100 mM PB+200 mM arginine hydrochloride, 5% isopropanol (pH 6.8); • Flow rate: 0.6 mL/min; • Detection wavelength: 280 nm; • Column temperature: 30° C.; • Loading volume: 10 uL; • Elution gradient: isocratic elution. • (5) Native MS: • Chromatographic column: ACQUITY UPLC Protein BEH SEC 200A (1.7 μm, 2.1 mm×150 mm); • Mobile phase: 50 mM ammonium acetate; • Running time: 12 min; • Flow rate: 0.065 mL/min; • Loading volume: 2 μL; • Column temperature: 30° C.; • Detection wavelength: 280 nm; • Capillary: 3.0 kV; • Cone voltage: 140 V; • Source offset: 80 V; • Source temperature: 125° C.; • Desolvation temperature: 250° C.; • Desolvation gas flow: 600 L/h. • (6) LC-MS:
Pertuzumab was reduced and conjugated as described in section a in Example 2. Conjugated samples obtained using different small molecule compounds were subjected to hydrolysis at 35° C. for a time period in the range of 3-18 hours, in 50 mM sodium dihydrogen phosphate-disodium hydrogen phosphate buffer, pH 7.8. The hydrolysis systems were sampled at different time points, and detected by Native MS.
Pertuzumab was reduced and conjugated as described in section a in Example 2. Conjugated samples obtained using different small molecule compounds were displaced to different hydrolysis solution systems (A: 50 mM sodium dihydrogen phosphate-disodium hydrogen phosphate buffer, pH 7.8; B: 50 mM sodium dihydrogen phosphate-disodium hydrogen phosphate buffer+3% arginine, pH 7.8; C: 50 mM potassium dihydrogen phosphate-dipotassium hydrogen phosphate buffer, pH 7.8; and D: 50 mM tromethamine-hydrochloric acid buffer, pH 7.8) for hydrolysis. Then the hydrolysis systems were sampled at different time points, and detected by Native MS.

[1] = Pertuzumab conjugate, Native MS
[2] = Pertuzumab conjugate, 50 mM sodium dihydrogen phosphate-disodium hydrogen phosphate buffer, pH 7.8, 35° C., Native MS
[3] = hydrolysis system A: 50 mM sodium dihydrogen phosphate-disodium hydrogen phosphate buffer, pH 7.8
[4] = hydrolysis system B: 50 mM sodium phosphate buffer+3% arginine, pH 7.8
[5] = hydrolysis system C: 50 mM potassium dihydrogen phosphate-dipotassium hydrogen phosphate buffer, pH 7.8
[6] = hydrolysis system D: 50 mM tromethamine-hydrochloric acid buffer, pH 7.8

SMILES	hydrolysis of conjugated samples (in words)	6 h hydrolysis percentage [1]	18 h hydrolysis percentage [1]	3 h hydrolysis percentage [2]	1 h hydrolysis percentage [3]	3 h hydrolysis percentage [3]	1 h hydrolysis percentage [4]	3 h hydrolysis percentage [4]	1 h hydrolysis percentage [5]	3 h hydrolysis percentage [5]	1 h hydrolysis percentage [6]	3 h hydrolysis percentage [6]	hydrolysis speed of conjugated samples (in words)
CCC(C)[C@@H]([C@@H](CC(=O)N1CCC[C@H]1[C@H](OC)[C@@H](C)C(=O)N[C@H](C)[C@@H](O)c1ccccc1)OC)N(C)C(=O)[C@@H](NC(=O)[C@H](C(C)C)N(C)C(=O)OCc1ccc(NC(=O)[C@H](CCCNC(N)=O)NC(=O)[C@@H](NC(=O)COCCOCCOCCOc2c(OC)cc(N3C(=O)C(Sc4ccccc4)=C(Sc4ccccc4)C3=O)cc2OC)C(C)C)cc1)C(C)C (stereo partly shown) [A-2]	relatively low percentage of hydrolysis	30.33%	48.43%	17.85%	–	–	–	–	–	–	–	–	–
CCC(C)[C@@H]([C@@H](CC(=O)N1CCC[C@H]1[C@H](OC)[C@@H](C)C(=O)N[C@H](C)[C@@H](O)c1ccccc1)OC)N(C)C(=O)[C@@H](NC(=O)[C@H](C(C)C)N(C)C(=O)OCc1ccc(NC(=O)[C@H](CCCNC(N)=O)NC(=O)[C@@H](NC(=O)COCCOCCOCCOc2c(F)cc(N3C(=O)C(Sc4ccccc4)=C(Sc4ccccc4)C3=O)cc2F)C(C)C)cc1)C(C)C (stereo partly shown) [A-3]	–	–	–	–	89.31%	99.32%	93.48%	99.41%	92.52%	99.70%	90.33%	99.31%	hydrolyzed rapidly in all above buffers
CCC(C)[C@@H]([C@@H](CC(=O)N1CCC[C@H]1[C@H](OC)[C@@H](C)C(=O)N[C@H](C)[C@@H](O)c1ccccc1)OC)N(C)C(=O)[C@@H](NC(=O)[C@H](C(C)C)N(C)C(=O)OCc1ccc(NC(=O)[C@H](CCCNC(N)=O)NC(=O)[C@@H](NC(=O)COCCOCCOCCOc2ccc(N3C(=O)C(Sc4ccccc4)=C(Sc4ccccc4)C3=O)c(C(F)(F)F)c2)C(C)C)cc1)C(C)C (stereo partly shown) [A-4]	relatively low percentage of hydrolysis	38.49%	53.46%	25.99%	15.65%	25.99%	18.17%	35.23%	14.98%	26.13%	14.56%	25.32%	required more time for being hydrolyzed
CCC(C)[C@@H]([C@@H](CC(=O)N1CCC[C@H]1[C@H](OC)[C@@H](C)C(=O)N[C@H](C)[C@@H](O)c1ccccc1)OC)N(C)C(=O)[C@@H](NC(=O)[C@H](C(C)C)N(C)C(=O)OCc1ccc(NC(=O)[C@H](CCCNC(N)=O)NC(=O)[C@@H](NC(=O)COCCOCCOCCOc2ccc(N3C(=O)C(Sc4ccccc4)=C(Sc4ccccc4)C3=O)cn2)C(C)C)cc1)C(C)C (stereo partly shown) [A-5]	–	16.76%	28.81%	7.29%	–	–	–	–	–	–	–	–	–
CCC(C)[C@@H]([C@@H](CC(=O)N1CCC[C@H]1[C@H](OC)[C@@H](C)C(=O)N[C@H](C)[C@@H](O)c1ccccc1)OC)N(C)C(=O)[C@@H](NC(=O)[C@H](C(C)C)N(C)C(=O)OCc1ccc(NC(=O)[C@H](CCCNC(N)=O)NC(=O)[C@@H](NC(=O)COCCOCCOCCOc2ccc(N3C(=O)C(Sc4ccc(C(=O)NC)cc4)=C(Sc4ccc(C(=O)NC)cc4)C3=O)cc2C(F)(F)F)C(C)C)cc1)C(C)C (stereo partly shown) [B-6]	relatively low percentage of hydrolysis	33.32%	47.60%	22.86%	–	–	–	–	–	–	–	–	–
CCC(C)[C@@H]([C@@H](CC(=O)N1CCC[C@H]1[C@H](OC)[C@@H](C)C(=O)N[C@H](C)[C@@H](O)c1ccccc1)OC)N(C)C(=O)[C@@H](NC(=O)[C@H](C(C)C)N(C)C(=O)OCc1ccc(NC(=O)[C@H](CCCNC(N)=O)NC(=O)[C@@H](NC(=O)COCCOCCOCCOc2ccc(N3C(=O)C(Sc4ccc(C(=O)NC)cc4)=C(Sc4ccc(C(=O)NC)cc4)C3=O)cc2OC)C(C)C)cc1)C(C)C (stereo partly shown) [B-7]	relatively low percentage of hydrolysis	54.71%	76.15%	34.10%	15.83%	34.10%	26.12%	51.25%	15.12%	35.12%	16.62%	36.43%	required more time for being hydrolyzed
CCC(C)[C@@H]([C@@H](CC(=O)N1CCC[C@H]1[C@H](OC)[C@@H](C)C(=O)N[C@H](C)[C@@H](O)c1ccccc1)OC)N(C)C(=O)[C@@H](NC(=O)[C@H](C(C)C)N(C)C(=O)OCc1ccc(NC(=O)[C@H](CCCNC(N)=O)NC(=O)[C@@H](NC(=O)COCCOCCOCCOc2ccc(N3C(=O)C(Sc4ccc(C(=O)N5CCOCC5)cc4)=C(Sc4ccc(C(=O)N5CCOCC5)cc4)C3=O)cc2)C(C)C)cc1)C(C)C (stereo partly shown) [C-1]	hydrolyzed all most completely within 3 hours or 6 hours	98.25%	–	79.08%	85.31%	99.56%	94.52%	99.87%	87.52%	99.70%	84.78%	99.79%	hydrolyzed rapidly in all above buffers
CCC(C)[C@@H]([C@@H](CC(=O)N1CCC[C@H]1[C@H](OC)[C@@H](C)C(=O)N[C@H](C)[C@@H](O)c1ccccc1)OC)N(C)C(=O)[C@@H](NC(=O)[C@H](C(C)C)N(C)C(=O)OCc1ccc(NC(=O)[C@H](CCCNC(N)=O)NC(=O)[C@@H](NC(=O)COCCOCCOCCOc2c(F)cc(N3C(=O)C(Sc4ccc(C(=O)N5CCOCC5)cc4)=C(Sc4ccc(C(=O)N5CCOCC5)cc4)C3=O)cc2F)C(C)C)cc1)C(C)C (stereo partly shown) [C-3]	hydrolyzed all most completely within 3 hours or 6 hours	99.56%	–	98.31%	90.31%	99.56%	97.52%	99.41%	90.55%	99.70%	88.36%	99.34%	hydrolyzed rapidly in all above buffers
CCC(C)[C@@H]([C@@H](CC(=O)N1CCC[C@H]1[C@H](OC)[C@@H](C)C(=O)N[C@H](C)[C@@H](O)c1ccccc1)OC)N(C)C(=O)[C@@H](NC(=O)[C@H](C(C)C)N(C)C(=O)OCc1ccc(NC(=O)[C@H](CCCNC(N)=O)NC(=O)[C@@H](NC(=O)CCCCCN2C(=O)C=CC2=O)C(C)C)cc1)C(C)C (stereo partly drawn) [D-1] ({Hexanoyl(6-maleimido)}-V[Cit][PABC][NMeV]V[Dil(5ξ)][Dolaproine]-X1)	–	7.67%	21.44%	4.74%	–	–	–	–	–	–	–	–	–

Source: patent US20230372526A1, “PREPARATION METHOD FOR BIS-S[…] ANTIBODY-DRUG CONJUGATE” (MABWELL (SHANGHAI) BIOSCIENCE CO., LTD., priority 2020, published 2023)
